# Test: soluble on expression in E. coli; label from the status in PepcDB or PDB records
row,Sequence,soluble on expression in E. coli
1,MSNNTKRVGSQTIELKSKPRIIATYSVVGPREGQGPLKEYFDKILQDDCNGCESFEKAESSLMITAIEGVIKKGNVKEEDVDYLFSGDLLNQLTSTNFVAREFKIPFFGVYGACSTMAESLSLSSMIMDGDFAKYAIASTSSHFSSAERQFRFPLEYGCQRKEYSQWTVTGSGAMLLGKSGDYPYVTHVTTGIVKDYGIKDADNMGAAMAPAAVDTIYKHFVDTGRKPEDYDVIATGDLGAVGKKLTEELLKEYGYDISKVYIDCGEKIFDNEKQGTFAGGSGCGCSAVVACGYLYRMLKEKKLKRVLLVSTGALLSSTSALQGESIPGIAHAVAIEYILEHHHHHH,soluble
2,MPLRILHTSDWHLGRSLFGRSRLHEFEAFLDWLAGTVESRGIELLVVAGDIFDTTTPGNATQKLYYQFLNRIALTPGSPCRHVVITSGNHDSPTFLDAPKELLRAFDVHVLGATTGDPADEVRLLRDRQGSPEAIVCAVPFLRDRDIRTVEPGESLEDKIRKLSDGVSLHYAEVARIAAERRRSLGADIPVIAMGHLFTAGCVTVEEDGVREIYAGALSIVCSTAFPPVFDYVALGHMHVPQRVDKTEHMRYCGSPIPMGFGEAKQQKLVLQVDFEGREPTVTEIEVPCFQPLERLAGSLDELSAAIAALRSAGSNAWLEIDYRGDEAPATVQEAMEQAVAGSLLEIRRIRNNRPLQQALRHSAANETLQQLDPEAVFNRCLEAYGTDESLRPALVESYREVLRSIREEDVMAEKEGKS,not soluble
3,MGHHHHHHSHNCHWTYLKQNRKMAANSSGQGFQNKNRVAILAELDKEKRKLLMQNQSSTNHPGARY,not soluble
4,GMISPERLRVYRFFASLTDEQLKDIALISEEKSFPTGSVIFKENSKADNLMLLLEGGVELFYSNGGAGSAANSTVCSVVPGAIFGVSSLIKPYHYTSSARATKPVRVVDINGARLREMSENNQALGQVLMNNVAAAVLARLH,soluble
5,MTNSNNRQSEYPVDPLFLDRWSPRAFDGSPMPKEHLLTILDAAHWAPSASNHQPWRFVYAHKDSEDWPLFVELLMEGNQKWAKNASVLLFVISRDHTISHEGEKKPSATHSFDAGAAWFSLAMQAHLLGYHAHGMGGIFKDRIVEKLDIPDGFKVEAGVAIGTLTDKSILPDDLAEREVPSKRVPLADVAFEGRFTGKAD,soluble
6,MPPMRSKATQWLLSVWGLMDPLYYACSRLEYVGGKENGCRSIFRVRLLRYKGETIHLSDGTTIAANDWLLKIHLHNVRLLCELMQYRSDIQKGRYIFEQVKAGLPHVAHHLYHHEQSSSIKGIIGVTMLNKGCERLGFDVIDIANSFYRWFKMASHWPMMTVAQHRLVPLVRPPKYLVMSKEKLFSLYGCHLIH,not soluble
7,MATIKDVARLAGVSVATVSRVINNSPKASEASRLAVHSAMESLSYHPNANARALAQQTTETVGLVVGDVSDPFFGAMVKAVEQVAYHTGNFLLIGNGYHNEQKERQAIEQLIRHRCAALVVHAKMIPDADLASLMKQMPGMVLINRILPGFENRCIALDDRYGAWLATRHLIQQGHTRIGYLCSNHSISDAEDRLQGYYDALAESGIAANDRLVTFGEPDESGGEQAMTELLGRGRNFTAVACYNDSMAAGAMGVLNDNGIDVPGEISLIGFDDVLVSRYVRPRLTTVRYPIVTMATQAAELALALADNRPLPEITNVFSPTLVRRHSVSTPSLEASHHATSD,soluble
8,MFFRCCMKIVQIIGGLGNQMFQFAFYLALKEKYVNVKLDTSSFGAYTHNGFELDKVFHVEYLKASIRERIKLSYQGSEIWIRVLRKLLKRKKTEYVEPYLCFDENAISLSCDKYYIGYWQSYKYFTNIEAAIRGQFHFSKVLSDKNEFIKKQMQNSNSVSLHVRLGDYVNNPAYSNICTSAYYNKAINIIQSKVSEPKFFVFSDDTVWCKDHLKIPNCHIIDWNNKEESYWDMCLMTYCKHNIIANSSFSWWGAWLNTNPERIVIAPGKWINDDRVQVSDIIPSDWICVLEHHHHHH,not soluble
9,GPLGSMSFTNATFSQVLDDLSARFILNLPAEEQSSVERLCFQIEQAHWFYEDFIRAQNDQLPSLGLRVFSAKLFAHCPLLWKWSKVHEEAFDDFLRYKTRIPVRGAIMLDMSMQQCVLVKGWKASSGWGFPKGKIDKDESDVDCAIREVYEETGFDCSSRINPNEFIDMTIRGQNVRLYIIPGISLDTRFESRTRKEISKIEWHNLMDLPTFKKNKPQTMKNKFYMVIPFLAPLKKWIKKRNIANNTTKEKNISVDVDADASSQLLSLLKS,soluble
10,MSGETTRLTEPQLRELAARGAAELDGATATDMLRWTDETFGDIGGAGGGVSGHRGWTTCNYVVASNMADAVLVDLAAKVRPGVPVIFLDTGYHFVETIGTRDAIESVYDVRVLNVTPEHTVAEQDELLGKDLFARNPHECCRLRKVVPLGKTLRGYSAWVTGLRRVDAPTRANAPLVSFDETFKLVKVNPLAAWTDQDVQEYIADNDVLVNPLVREGYPSIGCAPCTAKPAEGADPRSGRWQGLAKTECGLHAS,soluble
11,MPSTVEKMETEEYGKPDPNRLTTKLFAEYDALHEKQQNGMDEKKTMELLEPSEVFEIYSPATMEIISIAKEEGDILSDQSLKFLNEALRYTVVPRGYSPQGVDARTTVKNVATITKDLVDIGKIVFEKFPKYLQFFGPFGSLLKDILDMTKPEKKDPVLEELGNLKSQLESLSQKMVVQFDELKAFMVEKDFYNNYAHKASLLFDYMIDCVATIDTKTKERFEECYNEIKPERYVRDMLIKLESDVTNPLKVSMAGDELTSKATFQKWKDVLNSTLSQFLLLECFAMGFLHPKDESDSKKIIEKITYYTTLVEQWEKHYLNDRPYWPKLKKYVERIQGEGSFDKDEDMATELKKGLDSILTEDNFYLYVFEKNVHYEIHVVKPEMVFVSTNRGKFSVIISRAFEHSEYTCGQYWKKLDNIMYRRIERSIWYALETHMKEFVQWAVASYAKNDFKGCSYFLAFSSRNVAVRWTRKHGAEKGPGFINWDGQLTVFNVTTGTWNMLYMVGE,not soluble
12,MGSDKIHHHHHHMDNPVEEHSPTAQTPVLNLDNVPVGVPLEWPIVDADGTLLFATGTILATTDERNFLFGHFHPQRGDLLDAATQPAPESDAHADPGSPLTLKDMHLEIGALIGVRPQVGSGAPMHPCRIIGFAPNHALFVTPPMHDGRMLPMGLGENIEIVAIASHAVFRFVCTIEAICRSPFDYVVLSKPGVIRRLRERKSIRVRTHLAVRFGIGQSGESYEGLGLAKGVSALGMSLAASWTLGAVGDRLRLAFRLKSKDLDTEIETTAVIRNVQQGSGPGTPSTHGLELDQLDATQQMAMKVFVFDRQDDVVYWSSGLK,not soluble
13,MDSRSLSVHDGAMQTLTVPDSGLAPLLPGQRLARGVCRHLRSHDFVSVVELVPAPGLRVDVMALGPKGEIWVVECKSSRADYQSDRKWQGYLDWCDRFFFAVDEAFPVDLLPEGTGLMLADGYDAEILRIGPEGRLAPARRKAVIQGFARHAALRLQGLRDPGAFPG,not soluble
14,MGSDKIHHHHHHMQISFISHEYPPVSGGGSTALHEYASGLATRGHAVQVVTVGTGAHDTVDTEDGVQVVRLAAGRKSLLAPSKAELIRSCAALRLKSMPHLRRHEPEVLVAFFAFPAGFLAAPLAAKLNIPLVVSLRGSDVPGFSAKRLGVFGPLLPYLFRRATRHAAAVVPNGRRLADMAAPYLHTGSRVQVIPNGVDTLRFAPQGAEHGSMGGPLRVLFVGQMIARKQCLVLAQALHEVAARGVPLQVSFAGSGPLEQDIRRIVSSLDPVVGVTFTGHVPRNAIADLYGAHDVLVHLSQAEGVSNVLMEALSSGLCLVAADTAVDAAIDGVPRQAPAEDGGIILLPVDCGPVVLGATLAGLACNRSLVEEQQRLARRTALKNSWQVRVGELEDLLTGSIAGCQAS,not soluble
15,MIADDPHLELRLAASERDLRAAQRLRYTVFVEELGGDGDLVDHAERLERDEFDDLCDHLLLIDRRRDAAALEDVVGVYRLLPGERAAGAGRFYCDSEYDLDPLRASGRRVLELGRSCVHPDYRGGAAVFLLWSGLADYALAQRTELLFGVASFHGTDIEALAEPLSYLHAFHLAPEELRVRARSEGGQRMDLIPPERIDRRAAMLAMPPLIKAYLRLGGVVGEGAWIDRAFNTTDVCLLMDTARMSARHRDFYARRTVSAE,not soluble
